# Data from the supplement of paper PMC9170038.
# Test system: MS2 coat protein
# Experiment: apparent KD of MS2 coat protein; designed switch direction (-1 OFF switch, 1 ON switch): 1; higher = weaker reporter binding
# Summary of the method: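 Designed RNA switches with common flanks were transcribed on Illumina chips by stalled E. coli RNA polymerase and titrated with SNAP-549-labelled MS2 coat protein, from 0.7 or 1.5 nM doubling to 3 µM, in Tris-HCl pH 7.5 buffer with KCl, MgCl2, BSA, DTT, tRNA and Tween-20. Steps lasted 0.8–1.5 h (lowest) to 10–20 min (highest). Titrations ran without input, with 200 uM small-molecule ligand, or with an oligonucleotide input. Normalised cluster fluorescence was curve-fitted, and apparent KD is the per-design median over clusters.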
# [1] = input ligand: microRNA oligo, concentration not stated
# [2] = Eterna round: R95, input ligand: FMN 200 uM
# [3] = Eterna round: R95, input ligand: microRNA oligo, concentration not stated
# [4] = Eterna round: R95, input ligand: none
Sequence,apparent KD of MS2 coat protein (input ligand: FMN 200 uM),apparent KD of MS2 coat protein [1],apparent KD of MS2 coat protein (input ligand: none),apparent KD of MS2 coat protein [2],apparent KD of MS2 coat protein [3],apparent KD of MS2 coat protein [4]
"GGUACCAUCACAGGAUAUGCUAUCCUUUGGGUAGCAGAAGGGUGAAACAUGAGGAUCACCCAUGUGGUGCCAGGGCGUGAGCCC [JL SSNG1 1.92] (Eterna round: R96, puzzle: Same State NG 1)",31.2 nM,398 nM,689 nM,,,
"GGUAUCGACGCAGGAUAUGCUAUCCUUUGGGUAGCAGAAGGGUGAACAUGAGGAUCACCCAUGUGGGUGCCAGGGCGUGAGCCC [JL SSNG1 1.82] (Eterna round: R96, puzzle: Same State NG 1)",694 nM,18.2 nM,86.8 nM,,,
"GGUAUUGACACAGGAUAUGCUUACGAAACGUAAGCAGAAGGGUGAACAUGAGGAUCACCCAUGUAGGUACCAGGGCGUGAGCCC [JL SSNG1 1.75] (Eterna round: R96, puzzle: Same State NG 1)",151 nM,694 nM,1470 nM,,,
GGUCCAGCCUGAGCUGGACAAAAGCAUGUACAUGAGGAUCACCCAUGUCAUGUACAAGCUUUUUGCUCGUCAAAAGG [Mat - hsa-mir-208a - 102] (puzzle: Sensor for hsa-mir-208a),,,,54.3 nM,16 nM,89.5 nM
GGUCCAGCCUGAGCUGGACAAAAGCAUGUACAUGAGGAUCACCCAUGUCAUGUACAAGCUUUUUGCUCGUCAUAAAG [Mat - hsa-mir-208a - 97] (puzzle: Sensor for hsa-mir-208a),,,,228 nM,18.2 nM,334 nM
GGUCCAGCCUGAGCUGGACAAAAGCAUGUACAUGAGGAUCACCCAUGUCGUGUACAAGCUUUUUGCUCGUCUUAAAA [JL mod - D87 - 5] (puzzle: Sensor for hsa-mir-208a),,,,215 nM,13.9 nM,296 nM
GGUCCAGCCUGAGCUGGACAGAAGCAUGUACAUGAGGAUCACCCAUGUCAUGUACAAGCUUUUUGCUCGUCUUAAAA [JL mod - D87 - 1] (puzzle: Sensor for hsa-mir-208a),,,,439 nM,13.2 nM,498 nM
GGUCCAGCCUGAGCUGGACCACAGCAUGUACAUGAGGAUCACCCAUGUCAUGUACAAGCUUUUUGUUUAACUUAAAA [Sensorship 12 - Jieux - Sensor for hsa-mir-208a] (puzzle: Sensor for hsa-mir-208a),,,,211 nM,18.2 nM,287 nM
GGUCCAGCCUGAGCUGGACCGAAGCGUGUACAUGAGGAUCACCCAUGUCAUGUACAGGCUUUUUGCUCGUCUUAUUG [JL-shm-2.11 JL Mod] (puzzle: Sensor for hsa-mir-208a),,,,46.5 nM,20.6 nM,72.9 nM
GGUCCAGCUUUUGCUGGUCCUUCGCUUGCACAUGAGGAUCACCCAUGUCGUGUACAUGCUUGGUGCCCGUCUUUUUU [Photon Torp-16] (puzzle: Sensor for hsa-mir-208a),,,,137 nM,44.9 nM,229 nM
"GGUCCAUCAUGAGGAUAUGGCACCUUAUUGGUGCCAGAAGGCAUGUAAAUUAUAAUAAACAUGAGGAUCACCCAUGUAUGGACC [Eli NG1ss - 96] (Eterna round: R96, puzzle: Same State NG 1)",439 nM,55.5 nM,137 nM,,,
GGUCCGGCCUGAGCUGGACCGAAGCAUGUACAUGAGGAUCACCCAUGUCAUGUACAGGCUUUUUGCUCGUCUUAUUG [JL-shm-2.13 JL Mod] (puzzle: Sensor for hsa-mir-208a),,,,705 nM,14.4 nM,683 nM
"GGUCCGGCCUGAGCUGGACCGGAGCAUGUACAUGAGGAUCACCCAUGUCAUGUACAGGCUUCUUGCUCGUCUUGUUG [JL-shm-2.16 JL Mod] (Eterna round: R96, puzzle: Sensor for hsa-mir-208a)",282 nM,14.8 nM,130 nM,,,
GGUCCGGCCUGAGCUGGACCGGAGCAUGUACAUGAGGAUCACCCAUGUCAUGUACAGGCUUCUUGCUCGUCUUGUUG [JL-shm-2.16 JL Mod] (puzzle: Sensor for hsa-mir-208a),,,,314 nM,15 nM,421 nM
